Results taken from paper PMC10539308, “Acetylation reprograms MITF target selectivity and residence time”.

Experiments:
[1] = biological target: Ac-K206 MITF DBD (Homo sapiens) (UniProt O75030); assay: fluorescence anisotropy; conditions: 10 mM Tris/HCl pH 7.5, 300 mM NaCl, 0.01% Triton X-100, 0.1 mg/mL BSA, 25 C, 5 min, 1.33 nM dsDNA, quadratic fit, n=3
MITF DBD WT [2] = biological target: T1, MITF DBD WT (UniProt Q08874 287-403); assay: fluorescence anisotropy; moderately reduced vs CLEAR-box; 10 mM Tris/HCl pH 7.5, 300 mM NaCl, 0.01% Triton X-100, 0.1 mg/mL BSA, 25 C, 5 min, 1.33 nM dsDNA; quadratic fit, n=3; conditions: protein: recombinant; tags: His (Ni-NTA purified; pETM-11); chain copies: 2; label: 3' fluorescein on strand 1; blunt (annealed with complementary oligonucleotide)
T1 sequence (Q08874 287-403): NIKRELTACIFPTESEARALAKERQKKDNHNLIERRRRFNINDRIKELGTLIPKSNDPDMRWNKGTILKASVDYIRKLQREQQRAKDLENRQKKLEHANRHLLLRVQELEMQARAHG

MITF DBD WT [3] = biological target: T1, MITF DBD WT; assay: fluorescence anisotropy; 10 mM Tris/HCl pH 7.5, 300 mM NaCl, 0.01% Triton X-100, 0.1 mg/mL BSA, 25 C, 5 min, 1.33 nM dsDNA; quadratic fit, n=3; conditions: protein: recombinant; tags: His (Ni-NTA purified; pETM-11); chain copies: 2; label: 3' fluorescein on strand 1; blunt (annealed with complementary oligonucleotide)

Sequence of Ac-K206 MITF DBD (Homo sapiens) (O75030 whole entry): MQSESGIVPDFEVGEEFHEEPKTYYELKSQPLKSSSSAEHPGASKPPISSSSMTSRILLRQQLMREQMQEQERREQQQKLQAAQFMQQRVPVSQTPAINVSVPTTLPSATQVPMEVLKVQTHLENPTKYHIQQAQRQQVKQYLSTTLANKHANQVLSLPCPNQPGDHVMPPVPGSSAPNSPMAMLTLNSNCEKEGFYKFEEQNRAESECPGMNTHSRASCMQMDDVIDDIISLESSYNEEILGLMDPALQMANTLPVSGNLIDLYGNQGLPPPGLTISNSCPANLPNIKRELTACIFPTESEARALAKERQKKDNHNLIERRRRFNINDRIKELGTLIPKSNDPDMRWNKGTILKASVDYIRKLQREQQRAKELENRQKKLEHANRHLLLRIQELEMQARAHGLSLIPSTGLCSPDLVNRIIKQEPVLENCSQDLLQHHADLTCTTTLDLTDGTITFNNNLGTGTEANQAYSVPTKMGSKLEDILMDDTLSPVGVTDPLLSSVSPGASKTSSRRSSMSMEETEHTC

“GAGATCACGTGATGAC (double strand) [CLEAR-box]” showed a binding signal (fold reduced vs WT on CLEAR-box) [1] of 3.

In the case of “GAGATCATGTGATGAC (double strand) [TYR enhancer]”, the binding signal ([1]; scale: fold further reduced vs Ac-K206 on CLEAR-box) is reported as 5.

With “GAGATCATGTGTTGAC (double strand) [M-box]” the binding signal (fold reduced vs Ac-K206 on CLEAR-box) [1] was 20.

B1: TYR enhancer (dsDNA)
DNA 1: GAGATCATGTGATGAC
DNA 2: GTCATCACATGATCTC
B1: binds (MITF DBD WT [2]).

B2: CLEAR-box (dsDNA)
DNA 1: GAGATCACGTGATGAC
DNA 2: GTCATCACGTGATCTC
B2: binds (MITF DBD WT [3]).
